For the assay, the target named is SiOBP15, purified, His-tag removed (Solenopsis invicta). Briefly: SPR; open SPR; SiOBP15 coupled to a COOH chip until saturation, SiApoLp-III or SiFABP5 titrated as analyte; one-to-one model (TraceDrawer). In general terms: Surface plasmon resonance follows binding to a sensor surface in real time, without labels.

One may read the Kd as the constant that tells how readily two partners part at equilibrium. Read a low Kd as higher affinity.

As for “SiFABP5, purified, His-tag removed (natural protein)”, the Kd stood at 1.1 µM.

For the origin of these results see publication PMC11813584, “An odorant-binding protein functions in fire ant social immunity interfacing with innate immunity” (Open Biology, 2025).
